Values of other authors in PMC10953113 (Biomedicine & pharmacotherapy = Biomedecine & …, 2024).

Conditions: no reference given

Q: Which “half-life (T1/2)” value does the source give for Arginine vasopressin [AVP] here?
A: ~ 10 min
